This data set relates to ATP. The experiment in a line: switch fluorescence ratio, 500 uM ATP over buffer (Cy3 cluster intensity, sum of 5 cycles each) (fold (ratio)); higher = stronger signal-on switching upon ATP binding; sequences stand for … in TCGTCGGCAGCGTCAGATGTGTATAAGAGACAGTTTTTTTTTTTTTTTTTTTTTTTTT…TC. The following applies: aptamer strand: ATP DNA aptamer (quencher-CACCTGGGGGAGTATTGCGGAGGAAGG + anchor), 100 nM annealed; ATP concentration: 500 uM. The gist of the method: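 For every switch-domain sequence, the fluorescence ratio is the mean of per-cluster values, each being summed target-cycle Cy3 intensity over summed buffer-cycle Cy3 intensity. Clusters outside 100-1000 RFU were excluded. On a modified Illumina MiSeq flow-cell, the Cy3-labelled switching-strand clusters were annealed to 100 nM quencher-labelled ATP aptamer, imaged in selection buffer and then after 15 min with 500 uM ATP at 22 °C. Five such cycles were run, with NaOH stripping and re-annealing between them.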

The values below come from the supplement of paper PMC10126150.

± gives the standard deviation of the averaged measurements.
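Further: ATP exposure 15 min at 22 °C before imaging.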

Consider ATGATATTTC, for which the switch fluorescence ratio worked out at 0.961 ± 0.021.

As for GGGCAAGGAG, the switch fluorescence ratio was found to be 1.01 ± 0.02.

Take TGATTTGTTT: the switch fluorescence ratio came out at 1 ± 0.04.

As for AAGTTTTGCA, the switch fluorescence ratio was 1.007 ± 0.0091.

As to ATGTTAGGAA, the switch fluorescence ratio is 1 ± 0.0065.

As to GGGCCGCGCT, the switch fluorescence ratio stood at 0.942 ± 0.039.

For the sequence CGTGGGGCGG, the switch fluorescence ratio was 0.999 ± 0.016.

Consider TCGTAATGAG, for which the switch fluorescence ratio was 1.019 ± 0.0034.

With TTTTGTGTTG, the switch fluorescence ratio came to 0.996 ± 0.013.

As to TGTCTTTTTT, the switch fluorescence ratio was 1.01 ± 0.029.

Consider CGAGTTTTTG, for which the switch fluorescence ratio came out at 0.979 ± 0.014.

AAAGAAATTC: the switch fluorescence ratio stood at 1.02 ± 0.068.

For the sequence TGGCTTTTAT, the switch fluorescence ratio amounted to 0.95149 ± 0.00041.

For GGGAGAGGGC, the switch fluorescence ratio was determined as 0.991 ± 0.013.

On to CAAGCGATGG, for which the switch fluorescence ratio came out at 1.63 ± 0.065.

GGGTGTTTGT: the switch fluorescence ratio worked out at 1 ± 0.018.

On to TTTGCACAGC, for which the switch fluorescence ratio worked out at 0.997 ± 0.051.

Consider AAGTGGTGCA, for which the switch fluorescence ratio was 0.974 ± 0.013.

With TGTCAGTGCG, the switch fluorescence ratio came to 0.97 ± 0.042.

As to GGAATCTGTT, the switch fluorescence ratio came to 0.993 ± 0.068.

As for GAGGGGAAGT, the switch fluorescence ratio was determined as 0.9982 ± 0.004.

Consider TTTTGGAGGG, for which the switch fluorescence ratio turned out to be 1.01 ± 0.034.

As for GGACTCAGAA, the switch fluorescence ratio stood at 0.9867 ± 0.0045.

Regarding AGCATACCTT, the switch fluorescence ratio is 1.11 ± 0.17.

Regarding TTAATAGCGT, the switch fluorescence ratio stood at 0.999 ± 0.029.

Take TTCAGTAGAG: the switch fluorescence ratio is 1.03 ± 0.024.

Turning to GATTTTCACT, the switch fluorescence ratio was 0.9903 ± 0.0092.

Regarding AATGAAAAAT, the switch fluorescence ratio stood at 0.989 ± 0.067.

Take GCAGATTACG: the switch fluorescence ratio was 1.01 ± 0.058.

Regarding GCCATGTCGA, the switch fluorescence ratio turned out to be 0.9921 ± 0.0061.

Take GGGCGGATGG: the switch fluorescence ratio turned out to be 0.986 ± 0.018.

As to TAGTGTATTC, the switch fluorescence ratio amounted to 0.989 ± 0.026.

As to ATAGGGAGGG, the switch fluorescence ratio was found to be 1.012 ± 0.0048.

As to TTCGGGCATT, the switch fluorescence ratio came to 0.989 ± 0.046.

As for TAGTTAATTT, the switch fluorescence ratio amounted to 1.01 ± 0.034.

GCAGGAATGT: the switch fluorescence ratio turned out to be 1.0036 ± 0.00065.

As to AAATGGCCAC, the switch fluorescence ratio was found to be 1.01 ± 0.035.

For the sequence TGTGCTTTGT, the switch fluorescence ratio was 1 ± 0.016.

On to GGCCCAGCGC, for which the switch fluorescence ratio worked out at 0.976 ± 0.0011.

For the sequence GGGGGCAAAT, the switch fluorescence ratio is 0.9935 ± 0.0068.

With CGATATTGCA, the switch fluorescence ratio turned out to be 1.02 ± 0.025.

Consider GTTTATCGGG, for which the switch fluorescence ratio was 0.964 ± 0.0099.

Turning to GGCATTTGTG, the switch fluorescence ratio was 1 ± 0.025.

Take GGCTTTTTTT: the switch fluorescence ratio turned out to be 0.994 ± 0.029.

In the case of TAACATGTGG, the switch fluorescence ratio came to 1.017 ± 0.01.

With TTCAAGTTTT, the switch fluorescence ratio was 1.02 ± 0.063.

As to ATAATATGTT, the switch fluorescence ratio came out at 0.9911 ± 0.004.

Turning to ATATCAGCAT, the switch fluorescence ratio worked out at 1.065 ± 0.005.

Consider ACCTTATCCT, for which the switch fluorescence ratio stood at 1.16 ± 0.012.

With CAAAATTCCG, the switch fluorescence ratio was found to be 1.08 ± 0.017.

On to AAGCATCTTT, for which the switch fluorescence ratio came to 0.974 ± 0.013.

For the sequence TTTTTCGGG, the switch fluorescence ratio came to 0.996 ± 0.014.

Regarding TTTTGGCTGG, the switch fluorescence ratio came out at 1.01 ± 0.052.

Turning to TGTTATACAT, the switch fluorescence ratio stood at 1.01 ± 0.024.

Regarding GATATGGGCA, the switch fluorescence ratio was 1.04 ± 0.037.

Take GCCATTGGGG: the switch fluorescence ratio was found to be 0.9872 ± 0.0012.

With TAGTTTGGGT, the switch fluorescence ratio was 0.974 ± 0.012.

Turning to TGCCTGGGGA, the switch fluorescence ratio is 1.2 ± 0.25.

Take GGAAGTATTA: the switch fluorescence ratio was found to be 0.966 ± 0.017.

Turning to TCGGGTAAGT, the switch fluorescence ratio was 1.01 ± 0.077.

On to CAATGAGGTG, for which the switch fluorescence ratio is 1.08 ± 0.036.

With TTTCTGGTT, the switch fluorescence ratio was found to be 1.01 ± 0.038.

Regarding TCGTCTAATG, the switch fluorescence ratio came to 0.9784 ± 0.0016.

As to TAGTAAATCG, the switch fluorescence ratio was found to be 1.007 ± 0.0078.

For GCATTGGTTC, the switch fluorescence ratio was 1.02 ± 0.042.

As to GAGGAGGGGA, the switch fluorescence ratio is 1.01 ± 0.018.

As for GATGGTTTGT, the switch fluorescence ratio is 0.988 ± 0.039.

In the case of TTTTTAAATT, the switch fluorescence ratio is 0.997 ± 0.025.

For the sequence AGTTTGGCGG, the switch fluorescence ratio came out at 0.923 ± 0.084.

Consider ATTGGATGGG, for which the switch fluorescence ratio was 0.997 ± 0.057.

For the sequence AGGTCCGGAA, the switch fluorescence ratio stood at 1.14 ± 0.017.

Consider AAGTTCACAA, for which the switch fluorescence ratio is 1.01 ± 0.033.

Turning to TTTGGTGGAT, the switch fluorescence ratio came to 0.9794 ± 0.0058.

For GACGACGTGC, the switch fluorescence ratio worked out at 2.33 ± 0.44.

As for GATTATGCGC, the switch fluorescence ratio was 1.03 ± 0.037.

With TTTGAGTGGC, the switch fluorescence ratio stood at 0.969 ± 0.041.

For the sequence CTTAACCTTC, the switch fluorescence ratio worked out at 2.43 ± 0.31.

With GGGGAAAGAG, the switch fluorescence ratio is 1 ± 0.017.

As to CTATCAGCTA, the switch fluorescence ratio came out at 1.1 ± 0.03.

Take CCTCACAGTT: the switch fluorescence ratio was determined as 1.24 ± 0.096.

Take TGGTGATGGC: the switch fluorescence ratio is 0.991 ± 0.012.

Turning to TATTAGACGA, the switch fluorescence ratio stood at 0.963 ± 0.015.

In the case of GCAAATATTG, the switch fluorescence ratio worked out at 1.01 ± 0.018.

On to CGACTATCGC, for which the switch fluorescence ratio came to 1.12 ± 0.06.

As for TGGGGCTATA, the switch fluorescence ratio was 0.995 ± 0.037.

Consider CTTTATATCT, for which the switch fluorescence ratio stood at 0.993 ± 0.03.

As to TTGGGAGCTT, the switch fluorescence ratio turned out to be 1.01 ± 0.048.

For the sequence TAGCCTATTG, the switch fluorescence ratio was 0.979 ± 0.038.

As to TGTGGGCTGT, the switch fluorescence ratio turned out to be 1.02 ± 0.015.

In the case of TGTAGCATCT, the switch fluorescence ratio came out at 1.081 ± 0.0096.

TTTACAATGG: the switch fluorescence ratio was 1.058 ± 0.0062.

With CTAGTCTGAA, the switch fluorescence ratio is 0.982 ± 0.031.

Regarding TTTGTACGGG, the switch fluorescence ratio is 0.999 ± 0.036.

Take GGTATAAGAT: the switch fluorescence ratio was 1.01 ± 0.013.

On to AGTGCCCAGG, for which the switch fluorescence ratio worked out at 2.4 ± 1.6.

For the sequence CTTTAGGGTG, the switch fluorescence ratio is 1.06 ± 0.047.

As for TTATTGAAGC, the switch fluorescence ratio was found to be 0.983 ± 0.028.

With CAAGGGGGGG, the switch fluorescence ratio amounted to 0.99 ± 0.034.

Turning to GACATTCTCG, the switch fluorescence ratio came to 1.005 ± 0.0086.

In the case of TGTGTGTTTT, the switch fluorescence ratio worked out at 1.01 ± 0.027.

Consider AGATGGTCAA, for which the switch fluorescence ratio was 0.967 ± 0.02.

For AGTTATGTTA, the switch fluorescence ratio is 1 ± 0.022.

For the sequence AGCTTGGGCG, the switch fluorescence ratio amounted to 0.995 ± 0.11.

With GAAGTCGAAT, the switch fluorescence ratio is 1.014 ± 0.0091.

Take GATCTACGGC: the switch fluorescence ratio was determined as 1.07 ± 0.024.

Regarding TGTTGTAGAA, the switch fluorescence ratio stood at 0.973 ± 0.013.

As for GTGATTACTG, the switch fluorescence ratio turned out to be 0.97 ± 0.011.

Turning to GGCTTTGCCC, the switch fluorescence ratio turned out to be 0.9669 ± 0.0028.

For the sequence TAAGCCCACG, the switch fluorescence ratio amounted to 1.09 ± 0.023.

Take TTAGGATTAA: the switch fluorescence ratio was 1.02 ± 0.063.

On to TTTTTTTTAC, for which the switch fluorescence ratio was found to be 1.04 ± 0.029.

As to ACTTGGTCTT, the switch fluorescence ratio worked out at 0.974 ± 0.03.

As for TCTAGGAAAG, the switch fluorescence ratio was found to be 0.991 ± 0.034.

For TCGCGCCCTG, the switch fluorescence ratio was determined as 1.03 ± 0.043.

In the case of TGATTTTATT, the switch fluorescence ratio was 0.974 ± 0.011.

Take TAATATTTCG: the switch fluorescence ratio was found to be 1.05 ± 0.04.

Take GGTTGGGACT: the switch fluorescence ratio was found to be 0.994 ± 0.028.

Turning to TTCAGCGGGA, the switch fluorescence ratio was found to be 0.992 ± 0.019.

Take CCGAATCCAG: the switch fluorescence ratio turned out to be 1.111 ± 0.0099.

On to TGAGGGGGAG, for which the switch fluorescence ratio is 1.01 ± 0.04.
